Data published in paper PMC10411628 (Chemical Science, 2023).
Blank lines part the entries; values can stand above or below the molecule they belong to.

How the values were obtained:
[1] = test system: pancreatic cancer cells; conditions: cited from earlier work
[2] = NMR titration of CP-1 with DG12; type: binding; conditions: 1H–1H COSY, equimolar CP-1 and DG12, 20 mM, d6-DMSO, 25 °C
[3] = Circular dichroism of DG12; type: physicochemical; conditions: circular dichroism spectrum
[4] = target: CP-1 (cyclic peptide 1); experiment: electrochemical impedance spectroscopy
[5] = target: CP-1 (cyclic peptide 1); experiment: QCM-D
[6] = target: CP-1 (cyclic peptide 1); experiment: BLI
[7] = target: CP-1 (cyclic peptide 1); experiment: nanochannel device, transmembrane ionic current and Faraday current

Molecule: Cc1sc(C(=O)c2cncnc2N[C@@H]2C[C@H](COS(N)(=O)=O)[C@@H](O)C2)cc1[C@@H]1NCCc2ccc(Cl)cc21 [TAK-981]
effect on SUMOylation [1]: selectively reduces SUMOylation

conformation [3]: random coil conformation
Molecule: DVIEVYQEQTGG [DG12]
largest chemical shift changes upon complexation, protons of DG12 [2]: H13 (isoleucine; C–H), H45 (glutamine; C–H), H51 (threonine; C–H), and H54 (glycine; N–H)

Rct increase at 10 nM DG12 [4]: 277% | adsorption amount [5]: 142 ng cm^−2 | Kd [6]: 5.86 µM | transmembrane ionic current increase ratio at 1 × 10^−6 M DG12 [7]: 84%
Molecule: DVIEVYQEQTGG [DG12, terminal dodecapeptide sequence of SUMO1]
